Source: PMC2686680, “Chibby forms a homodimer through a heptad repeat of leucine residues in its C-terminal coiled-coil motif” (BMC Molecular Biology, 2009)

Target: the molecule itself
Assay: SEC; His-Cby purified from stable HEK293T on Superdex 75 FPLC, 20 mM Tris-HCl pH 8.0, 1.0 M NaCl, 1 mM EDTA, 2 mM DTT, 2 mM betaine-HCl, 0.02% Triton X-100, 5% glycerol; fractions blotted with anti-Cby

B1: His-tagged Cby wild type (natural protein, human, UniProt Q9Y3M2 1-126, looked up)
chain: MPFFGNTFSPKKTPPRKSASLSNLHSLDRSTREVELGLEYGSPTMNLAGQSLKFENGQWIAETGVSGGVDRREVQRLRRRNQQLEEENNLLRLKVDILLDMLSESTAESHLMEKELDELRISRKRK
notes: Chibby (Cby), human, 126 amino acids; Cby cDNA in pcDNA4/HisMax A; the vector pcDNA4/HisMax A probably adds further N-terminal residues besides the His tag (surmise); also called His-Cby; His-CbyWT; source: transiently transfected for cross-linking), purified (nickel beads / Ni-NTA)
Q: B1 was tested. Which “stoichiometry N” value did it give?
A: Its value is 2.
